Test results taken from patent US5516678.

Test system: SspI restriction endonuclease (native) (Sphaerotilus sp. ATCC 13925)
Assay: cleavage_in_vitro
Details: Mono S fractions, homogeneous; lambda DNA assay stated in D-7

phage lambda DNA
activity: 140000 units/mg
